The values that follow come from the supplement of paper PMC11246515.

± gives the standard deviation of the averaged measurements. Some results are limits rather than exact numbers.

The data set is described as follows: total protein half-life in vivo (active degradation + dilution); higher = more stable protein.
[1] abbreviates: E. coli NCM3722 delta-clpP delta-lon delta-hslV, growth: N-lim chemostat, doubling time 6 h.
[2] abbreviates: E. coli NCM3722 delta-clpP, growth: N-lim chemostat, doubling time 6 h.
The mark [3] stands for this setting: E. coli NCM3722 delta-hslV, growth: N-lim chemostat, doubling time 6 h.
Setting [4] is: E. coli NCM3722 delta-lon, growth: N-lim chemostat, doubling time 6 h.
The mark [5] stands for this setting: E. coli NCM3722 delta-smpB, growth: N-lim chemostat, doubling time 6 h.
The mark [6] stands for this setting: wild type E. coli NCM3722, growth: C-lim chemostat, doubling time 3 h.
Where [7] appears, read: wild type E. coli NCM3722, growth: C-lim chemostat, doubling time 6 h.
Setting [8] is: wild type E. coli NCM3722, growth: C-lim chemostat, doubling time 12 h.
Where [9] appears, read: wild type E. coli NCM3722, growth: N-lim chemostat, doubling time 6 h.
The mark [10] stands for this setting: wild type E. coli NCM3722, growth: N-lim chemostat, doubling time 12 h.
The mark [11] stands for this setting: wild type E. coli NCM3722, growth: P-lim chemostat, doubling time 6 h.
Setting [12] is: wild type E. coli NCM3722, growth: P-lim chemostat, doubling time 12 h.

In the case of “MSEPLLIARTPDTELFLLPGMANRHGLITGATGTGKTVTLQKLAESLSEIGVPVFMADVKGDLTGVAQAGTVSEKLLARLKNIGVNDWQPHANPVVVWDIFGEKGHPVRATVSDLGPLLLARLLNLNDVQSGVLNIIFRIADDQGLLLLDFKDLRAITQYIGDNAKSFQNQYGNISSASVGAIQRGLLSLEQQGAAHFFGEPMLDIKDWMRTDANGKGVINILSAEKLYQMPKLYAASLLWMLSELYEQLPEAGDLEKPKLVFFFDEAHLLFNDAPQVLLDKIEQVIRLIRSKGVGVWFVSQNPSDIPDNVLGQLGNRVQHALRAFTPKDQKAVKAAAQTMRANPAFDTEKAIQELGTGEALISFLDAKGSPSVVERAMVIAPCSRMGPVTEDERNGLINHSPVYGKYEDEVDRESAYEMLQKGFQASTEQQNNPPAKGKEVAVDDGILGGLKDILFGTTGPRGGKKDGVVQTMAKSAARQVTNQIVRGMLGSLLGGRRR”, the “total protein half-life in vivo” value reads like this: under setting [1], 5.04 ± 0.57 h; under setting [2], 4.98 ± 0.19 h; under setting [3], 5.1 ± 0.27 h; under setting [4], 5.07 ± 0.26 h; under setting [5], 4.73 ± 0.25 h; under setting [6], 3.263 ± 0.025 h. Besides, the “total protein half-life in vivo” value runs as follows: under setting [7], 5.39 ± 0.34 h; under setting [8], 9.77 ± 0.81 h; under setting [9], 4.77 ± 0.15 h; under setting [10], 8.27 ± 0.62 h; under setting [11], 5.66 ± 0.28 h; under setting [12], 9.88 ± 0.78 h.
Turning to “MMEFILSHVEKGVMTLTLNRPERLNSFNDEMHAQLAECLKQVERDDTIRCLLLTGAGRGFCAGQDLNDRNVDPTGPAPDLGMSVERFYNPLVRRLAKLPKPVICAVNGVAAGAGATLALGGDIVIAARSAKFVMAFSKLGLIPDCGGTWLLPRVAGRARAMGLALLGNQLSAEQAHEWGMIWQVVDDETLADTAQQLARHLATQPTFGLGLIKQAINSAETNTLDTQLDLERDYQRLAGRSADYREGVSAFLAKRSPQFTGK”, under setting [1], the “total protein half-life in vivo” value worked out at 4.04 h.
For the sequence “MRYIKSITQQKLSFLLAIYIGLFMNGAVFYRRFGSYAHDFTVWKGISAVVELAATVLVTFFLLRLLSLFGRRSWRILASLVVLFSAGASYYMTFLNVVIGYGIIASVMTTDIDLSKEVVGLNFILWLIAVSALPLILIWNNRCRYTLLRQLRTPGQRIRSLAVVVLAGIMVWAPIRLLDIQQKKVERATGVDLPSYGGVVANSYLPSNWLSALGLYAWARVDESSDNNSLLNPAKKFTYQAPQNVDDTYVVFIIGETTRWDHMGIFGYERNTTPKLAQEKNLAAFRGYSCDTATKLSLRCMFVRQGGAEDNPQRTLKEQNIFAVLKQLGFSSDLYAMQSEMWFYSNTMADNIAYREQIGAEPRNRGKPVDDMLLVDEMQQSLGRNPDGKHLIILHTKGSHFNYTQRYPRSFAQWKPECIGVDSGCTKAQMINSYDNSVTYVDHFISSVIDQVRDKKAIVFYAADHGESINEREHLHGTPRELAPPEQFRVPMMVWMSDKYLENPANAQAFAQLKKEADMKVPRRHVELYDTIMGCLGYTSPDGGINENNNWCHIPQAKEAAAN”, the “total protein half-life in vivo” value by setting is: under setting [1], 4 ± 0.3 h; under setting [3], 4.35 ± 1.7 h; under setting [4], 6.45 ± 0.89 h; under setting [5], 3.61 ± 0.3 h; under setting [6], 2.87 ± 0.19 h; under setting [7], 4.84 ± 0.023 h. For the same sequence, the “total protein half-life in vivo” value is 8.037 ± 0.012 h under setting [8]; 5.66 ± 0.37 h under setting [9]; 8.75 ± 0.59 h under setting [10]; 4.14 ± 1.1 h under setting [11]; 6.76 ± 1.3 h under setting [12].
In the case of “MSDVLRPYRDLFPQIGQRVMIDDSSVVIGDVRLADDVGIWPLVVIRGDVHYVQIGARTNIQDGSMLHVTHKSSYNPDGNPLTIGEDVTVGHKVMLHGCTIGNRVLVGMGSILLDGAIVEDDVMIGAGSLVPQNKRLESGYLYLGSPVKQIRPLSDEEKAGLRYSANNYVKWKDEYLDQGNQTQP [P0A9W9]”, the “total protein half-life in vivo” value reads like this: under setting [2], 5.73 ± 1.7 h; under setting [3], 5.34 ± 1.1 h; under setting [4], 5.32 ± 0.6 h; under setting [5], 4.72 ± 0.17 h; under setting [6], 3.04 ± 0.14 h; under setting [8], 10 ± 2 h. Moreover, the “total protein half-life in vivo” value under setting [9] came out at 5.36 ± 0.53 h, the “total protein half-life in vivo” value under setting [10] is 8.69 ± 0.58 h, the “total protein half-life in vivo” value under setting [11] is 6.25 ± 0.13 h and the “total protein half-life in vivo” value under setting [12] stood at 14.3 ± 1.3 h.
For “MRVNNGLTPQELEAYGISDVHDIVYNPSYDLLYQEELDPSLTGYERGVLTNLGAVAVDTGIFTGRSPKDKYIVRDDTTRDTFWWADKGKGKNDNKPLSPETWQHLKGLVTRQLSGKRLFVVDAFCGANPDTRLSVRFITEVAWQAHFVKNMFIRPSDEELAGFKPDFIVMNGAKCTNPQWKEQGLNSENFVAFNLTERMQLIGGTWYGGEMKKGMFSMMNYLLPLKGIASMHCSANVGEKGDVAVFFGLSGTGKTTLSTDPKRRLIGDDEHGWDDDGVFNFEGGCYAKTIKLSKEAEPEIYNAIRRDALLENVTVREDGTIDFDDGSKTENTRVSYPIYHIDNIVKPVSKAGHATKVIFLTADAFGVLPPVSRLTADQTQYHFLSGFTAKLAGTERGITEPTPTFSACFGAAFLSLHPTQYAEVLVKRMQAAGAQAYLVNTGWNGTGKRISIKDTRAIIDAILNGSLDNAETFTLPMFNLAIPTELPGVDTKILDPRNTYASPEQWQEKAETLAKLFIDNFDKYTDTPAGAALVAAGPKL”, the “total protein half-life in vivo” value under setting [1] came to 4.17 ± 0.081 h; the “total protein half-life in vivo” value under setting [2] turned out to be 3.55 ± 0.13 h; the “total protein half-life in vivo” value under setting [3] came to 3.29 ± 0.037 h; the “total protein half-life in vivo” value under setting [4] worked out at 4.19 ± 0.05 h; the “total protein half-life in vivo” value under setting [5] was found to be 3.45 ± 0.21 h; the “total protein half-life in vivo” value under setting [6] was 3.53 ± 0.18 h. The “total protein half-life in vivo” value under setting [7] came to 6.17 ± 0.42 h; the “total protein half-life in vivo” value under setting [8] came out at 10.5 ± 0.7 h; the “total protein half-life in vivo” value under setting [9] is 3.69 ± 0.2 h; the “total protein half-life in vivo” value under setting [10] came to 5.13 ± 0.55 h; the “total protein half-life in vivo” value under setting [11] is 5.5 ± 0.58 h; the “total protein half-life in vivo” value under setting [12] is 10.7 ± 0.72 h.
Consider “MKAVSRVHITPHMHWDREWYFTTEESRILLVNNMEEILCRLEQDNEYKYYVLDGQTAILEDYFAVKPENKDRVKKQVEAGKLIIGPWYTQTDTTIVSAESIVRNLMYGMRDCLAFGEPMKIGYLPDSFGMSGQLPHIYNGFGITRTMFWRGCSERHGTDKTEFLWQSSDGSEVTAQVLPLGYAIGKYLPADENGLRKRLDSYFDVLEKASVTKEILLPNGHDQMPLQQNIFEVMDKLREIYPQRKFVMSRFEEVFEKIEAQRDNLATLKGEFIDGKYMRVHRTIGSTRMDIKIAHARIENKIVNLLEPLATLAWTLGFEYHHGLLEKMWKEILKNHAHDSIGCCCSDKVHREIVARFELAEDMADNLIRFYMRKIADNMPQSDADKLVLFNLMPWPREEVINTTVRLRASQFNLRDDRGQPVPYFIRHAREIDPGLIDRQIVHYGNYDPFMEFDIQINQIVPSMGYRTLYIEANQPGNVIAAKSDAEGILENAFWQIALNEDGSLQLVDKDSGVRYDRVLQIEESSDDGDEYDYSPAKEEWVITAANAKPQCDIIHEAWQSRAVIRYDMAVPLNLSERSARQSTGRVGVVLVVTLSHNSRRIDVDINLDNQADDHRLRVLVPTPFNTDSVLADTQFGSLTRPVNDSAMNNWQQEGWKEAPVPVWNMLNYVALQEGRNGMAVFSEGLREFEVIGEEKKTFAITLLRGVGLLGKEDLLLRPGRPSGIKMPVPDSQLRGLLSCRLSLLSYTGTPTAAGVAQQARAWLTPVQCYNKIPWDVMKLNKAGFNVPESYSLLKMPPVGCLISALKKAEDRQEVILRLFNPAESATCDATVAFSREVISCSETMMDEHITTEENQGSNLSGPFLPGQSRTFSYRLA”, for which the “total protein half-life in vivo” value reads like this: under setting [1], 6.07 h; under setting [5], 1.754 ± 0.011 h; under setting [10], 3.4 h.
As for “MSDERYQQRQQRVKEKVDARVAQAQDERGIIIVFTGNGKGKTTAAFGTATRAVGHGKKVGVVQFIKGTWPNGERNLLEPHGVEFQVMATGFTWDTQNRESDTAACREVWQHAKRMLADSSLDMVLLDELTYMVAYDYLPLEEVVQALNERPHQQTVIITGRGCHRDILELADTVSELRPVKHAFDAGVKAQIGIDY [P0A9H5]”, the “total protein half-life in vivo” value runs as follows: under setting [1], 4.8 ± 0.41 h; under setting [2], 4.52 ± 0.17 h; under setting [3], 4.27 ± 0.56 h; under setting [4], 5.29 ± 1.2 h; under setting [5], 4.17 ± 0.17 h; under setting [6], 3.41 ± 0.32 h. The “total protein half-life in vivo” value by setting is: under setting [7], 5.05 ± 0.13 h; under setting [8], 9.56 ± 0.6 h; under setting [9], 4.235 ± 0.024 h; under setting [10], 6.63 ± 0.33 h; under setting [11], 5.852 ± 0.021 h; under setting [12], 11 ± 0.43 h.
Regarding “MYQDKILVRQLGLQPYEPISQAMHEFTDTRDDSTLDEIWLVEHYPVFTQGQAGKAEHILMPGDIPVIQSDRGGQVTYHGPGQQVMYVLLNLKRRKLGVRELVTLLEQTVVNTLAELGIEAHPRADAPGVYVGEKKICSLGLRIRRGCSFHGLALNVNMDLSPFLRINPCGYAGMEMAKISQWKPEATTNNIAPRLLENILALLNNPDFEYITA”, the “total protein half-life in vivo” value by setting is: under setting [1], 4.39 ± 0.44 h; under setting [2], 4.08 ± 0.77 h; under setting [3], 3.55 h; under setting [4], over 8 h; under setting [5], 3.73 ± 0.15 h; under setting [6], 2.63 ± 0.15 h. Besides, the “total protein half-life in vivo” value was determined as 6.03 ± 0.89 h under setting [7]; 14.3 h under setting [8]; 5.66 h under setting [9]; 5.51 ± 1.4 h under setting [10]; 5.14 ± 0.06 h under setting [11]; 10.6 ± 0.37 h under setting [12].
As for “MQTVIFGRSGCPYCVRAKDLAEKLSNERDDFQYQYVDIRAEGITKEDLQQKAGKPVETVPQIFVDQQHIGGYTDFAAWVKENLDA”, the “total protein half-life in vivo” value under setting [1] was determined as 5.87 h; the “total protein half-life in vivo” value under setting [2] was 3.94 h; the “total protein half-life in vivo” value under setting [3] stood at 3.72 h; the “total protein half-life in vivo” value under setting [4] worked out at 4.75 ± 0.46 h; the “total protein half-life in vivo” value under setting [5] worked out at 3.33 h; the “total protein half-life in vivo” value under setting [6] stood at 2.14 h. The “total protein half-life in vivo” value is 4.99 h under setting [7]; 6.22 h under setting [8]; 3.39 h under setting [9]; 5.49 h under setting [10]; 4.16 h under setting [11]; 7.26 ± 0.75 h under setting [12].
As to “MNFRRLKYFVKIVDIGSLTQAAEVLHIAQPALSQQVATLEGELNQQLLIRTKRGVTPTDAGKILYTHARAILRQCEQAQLAVHNVGQALSGQVSIGFAPGTAASSITMPLLQAVRAEFPEIVIYLHENSGAVLNEKLINHQLDMAVIYEHSPVAGVSSQALLKEDLFLVGTQDCPGQSVDVNAIAQMNLFLPSDYSAIRLRVDEAFSLRRLTAKVIGEIESIATLTAAIASGMGVAVLPESAARSLCGAVNGWMSRITTPSMSLSLSLNLPARANLSPQAQAVKELLMSVISSPVMEKRQWQLVS”, the “total protein half-life in vivo” value was 6.26 ± 0.89 h under setting [1]; 2.6 ± 0.032 h under setting [2]; 0.485 ± 0.11 h under setting [3]; 0.469 h under setting [4]; 1.83 ± 0.15 h under setting [5]; 0.978 ± 0.3 h under setting [9]. The “total protein half-life in vivo” value under setting [10] worked out at 1.31 ± 0.14 h.
